Measurements reported in patent US11807689.

biological target: C1q Receptor in the complement system (rabbit serum complement) (rabbit); assay: cell-based or functional assay

**Q.** ARZERRA (ofatumumab) (antibody) was tested. Which CDC EC50 (Jeko-1 cells, rabbit serum) did it give?
**A.** 0.353 µg/mL

**Q.** With OCREVUS (ocrelizumab) (antibody) as the substance, how does the CDC EC50 (Jeko-1 cells, rabbit serum) read?
**A.** 1.21 µg/mL

**Q.** How did the CDC EC50 (Jeko-1 cells, rabbit serum) turn out when RITUXAN (rituximab) (antibody) was run?
**A.** 0.245 µg/mL
